Measured values: patent US20130150294A1 (UNIVERSITY OF TOLEDO, published 2013)

B1: GST-SERCA-CD3 (other)
chain: GTRRMAKKNAIVRSLPSVETLGCTSVICSDKTGTLTTNQMSVCRMFILDKVEGDTCSLNEFTITGSTYAPIGEVQKDDKPVKCHQYDGLVELATICALCNDSALDYNEAKGVYEKVGEATETALTCLVEKMNVFDTELKGLSKIERANACNSVIKQLMKKEFTLEFSRDRKSMSVYCTPNKPSRTSMSKMFVKGAPEGVIDRCTHIRVGSTKVPMTPGVKQKIMSVIREWGSGSDTLRCLALATHDNPLRREEMHLEDSANFIKYETNLTFVGCVGMLDPPRIEVASSVKLCRQAGIRVIMITGDNKGTAVAICRRIGIFGQDEDVTSKAFTGREFDELSPSAQRDACLNARCFARVEPSHKSKIVEFLQSFDEITAMTGDGVNDAPALKKSEIGIAMGSGTAVAKTASEMVLADDNFSTIVAAVEEGRAIYNNMKQFIRYLISSNV
notes: also called GST-CD3 from rat heart sarcoplasmic reticulum Ca2+-ATPase 2a
B2: GST-KD1 of Src (other)
chain: LRLEVKLGQGCFGEVWMGTWNGTTRVAIKTLKPGTMSPEAFLQEAQVMKKLRHE
notes: also called GST-tagged Src truncation; not shown: glutathione S-transferase (GST) fusion tag

Key:
[1] = biological target: T1, Src of LLC-PK1 cells (endogenous) (pig, UniProt K7GM45 2-548); experiment: GST pulldown from cell lysates, Western blot
T1 construct: Species from the cell line (pig kidney proximal LLC-PK1); also called Src from the LLC-PK1 cell lysates; Src in TCN23-19 and PY-17 cells (clones of LLC-PK1)

[2] = biological target: purified pig kidney Na+/K+-ATPase (PKE) (pig, UniProt P05024 6-1021; P05027 1-303); experiment: in vitro binding assay with GST-tagged Src truncations and purified Na+/K+-ATPase

| Binder | binding result [1] | binding result [2] |
| --- | --- | --- |
| B1 | no binding (tested: 1 mg LLC-PK1 cell lysates) |  |
| B2 |  | binds |
